Assays:
[1] = molecular target: T1, chemokine-like receptor 1 (CMKLR1), Q99788
T1 chain: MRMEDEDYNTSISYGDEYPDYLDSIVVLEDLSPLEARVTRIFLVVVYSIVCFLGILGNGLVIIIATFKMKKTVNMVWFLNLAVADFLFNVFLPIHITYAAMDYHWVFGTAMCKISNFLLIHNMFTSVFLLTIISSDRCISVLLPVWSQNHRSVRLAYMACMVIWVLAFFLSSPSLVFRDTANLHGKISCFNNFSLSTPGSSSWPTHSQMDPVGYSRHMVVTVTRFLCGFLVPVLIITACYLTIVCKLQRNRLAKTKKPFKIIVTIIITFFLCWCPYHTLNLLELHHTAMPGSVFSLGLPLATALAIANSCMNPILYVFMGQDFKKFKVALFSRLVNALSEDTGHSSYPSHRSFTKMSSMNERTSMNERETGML

[2] = molecular target: recombinant human GST-MDM2 (human), Q00987; experiment: fluorescence polarisation
Chain of recombinant human GST-MDM2 (human), Q00987 (Q00987 whole entry): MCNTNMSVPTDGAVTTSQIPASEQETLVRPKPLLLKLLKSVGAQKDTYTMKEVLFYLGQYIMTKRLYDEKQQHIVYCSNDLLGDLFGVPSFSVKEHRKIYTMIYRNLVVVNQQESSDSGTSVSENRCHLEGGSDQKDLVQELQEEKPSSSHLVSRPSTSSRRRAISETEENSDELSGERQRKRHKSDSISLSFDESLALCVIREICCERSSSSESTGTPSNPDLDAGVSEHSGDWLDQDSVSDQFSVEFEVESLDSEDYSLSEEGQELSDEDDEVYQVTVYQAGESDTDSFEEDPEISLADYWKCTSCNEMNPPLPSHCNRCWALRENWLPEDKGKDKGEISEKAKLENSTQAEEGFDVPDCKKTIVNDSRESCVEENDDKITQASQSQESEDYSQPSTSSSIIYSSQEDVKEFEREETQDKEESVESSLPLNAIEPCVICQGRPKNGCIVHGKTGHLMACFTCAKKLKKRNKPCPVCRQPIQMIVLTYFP

B1: Cy5-hsLMWP-PMIγ-cC9 (peptide)
chain: GSVSHHHHHHGGHHHHKDWWPLAFEALLRGEV
modifications: (EG)3 spacer between hsLMWP and D-lysine; D-lysine at 17 carrying Cy5-(EG)3 on its side chain; dwwplafeallr (residues 18-29) are D-amino acids; citrulline at 33; (EG)3 spacer between Cit and Pra; propargylglycine (Pra) at 34, joined to the azidolysine of cC9 by CuAAC; C-terminal amide | N-terminal acetyl; azidolysine at 1 (joined to Pra of the other chain by CuAAC); D-homocysteine at 5 in a …
Work on B1 yielded a Ca2+ flux assay, EC50 [1] of 220 nM and a Kd [2] of 90 nM.

Source: article PMC12814185, “Receptor-Mediated Shuttling of a D‑Amino Acid Peptide Achieves High Nanomolar Cytosolic Concentrations” (Journal of the American Chemical Society, 2025)
